T1: DLL3 (human, UniProt Q9NYJ7 27-618)
T1 construct: also called Delta-like 3; Human DLL3
T1 sequence: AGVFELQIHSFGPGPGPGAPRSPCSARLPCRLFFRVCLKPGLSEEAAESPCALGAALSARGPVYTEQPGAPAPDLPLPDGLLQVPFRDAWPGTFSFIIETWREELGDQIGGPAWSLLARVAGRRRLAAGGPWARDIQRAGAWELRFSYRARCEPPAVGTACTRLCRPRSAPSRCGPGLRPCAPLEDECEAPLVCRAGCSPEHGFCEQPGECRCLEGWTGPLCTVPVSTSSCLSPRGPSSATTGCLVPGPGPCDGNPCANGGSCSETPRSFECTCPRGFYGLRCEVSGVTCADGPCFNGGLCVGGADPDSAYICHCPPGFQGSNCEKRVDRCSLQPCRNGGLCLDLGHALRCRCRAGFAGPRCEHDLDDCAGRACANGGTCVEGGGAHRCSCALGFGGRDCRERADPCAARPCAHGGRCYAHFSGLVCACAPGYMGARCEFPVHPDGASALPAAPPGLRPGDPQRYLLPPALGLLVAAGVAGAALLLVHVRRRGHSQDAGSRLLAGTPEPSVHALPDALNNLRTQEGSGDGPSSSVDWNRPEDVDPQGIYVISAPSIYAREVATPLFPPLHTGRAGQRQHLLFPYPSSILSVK

T2: B7H3 (UniProt Q5ZPR3 29-534, limits assumed)
T2 construct: whole, on cells; also called CD276
T2 sequence (looked up): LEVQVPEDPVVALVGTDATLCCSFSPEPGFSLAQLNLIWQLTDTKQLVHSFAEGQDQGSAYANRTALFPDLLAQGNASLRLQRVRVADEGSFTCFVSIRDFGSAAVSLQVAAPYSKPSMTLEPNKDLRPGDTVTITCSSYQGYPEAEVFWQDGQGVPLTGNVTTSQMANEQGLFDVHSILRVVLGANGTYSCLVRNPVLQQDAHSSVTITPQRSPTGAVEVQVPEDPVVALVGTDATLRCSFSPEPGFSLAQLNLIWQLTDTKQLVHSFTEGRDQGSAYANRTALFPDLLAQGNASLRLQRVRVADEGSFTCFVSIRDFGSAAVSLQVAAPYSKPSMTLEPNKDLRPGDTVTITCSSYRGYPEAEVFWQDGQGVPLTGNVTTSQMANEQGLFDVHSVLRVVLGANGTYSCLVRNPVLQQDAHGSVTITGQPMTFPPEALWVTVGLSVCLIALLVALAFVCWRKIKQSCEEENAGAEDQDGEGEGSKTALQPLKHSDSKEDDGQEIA


Experiments:
CD3 = target: T3, CD3 (human, UniProt P07766 23-207); experiment: flow cytometry on primary T cells, anti-human IgG Fc secondary
T3 construct: whole, on cells; CD3 is a multi-chain complex; also called CD3ε; CD3 on the surface of primary T cells
Experimental: (§1) Binding of exemplary multispecific constructs containing an antigen-binding domain directed against DLL3 were assessed for binding to DLL3 positive SHP-77 tumor cells or primary T-cells. […] These binding assays were conducted by flow cytometry, wherein bound constructs were detected using a fluorophore-conjugated anti-human IgG Fc secondary antibody.

DLL3 = target: T1, DLL3; experiment: flow cytometry on SHP-77 cells, anti-human IgG Fc secondary
Experimental: as §1

B7H3 = target: T2, B7H3; experiment: flow cytometry on A375 cells

T3 sequence (P07766 23-207): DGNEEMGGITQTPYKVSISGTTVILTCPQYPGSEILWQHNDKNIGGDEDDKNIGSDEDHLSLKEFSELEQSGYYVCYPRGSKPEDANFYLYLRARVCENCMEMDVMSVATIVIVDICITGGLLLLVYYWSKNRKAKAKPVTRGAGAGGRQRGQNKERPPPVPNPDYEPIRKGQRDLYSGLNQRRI

| Binder | binding result (CD3) | binding result (DLL3) | binding result (B7H3) |
| --- | --- | --- | --- |
| cx5352 (other, Fc alternatives printed; first written; Short peptide linkers only 'e.g.') chain 1: EVQLVESGGGEVQPGGSLRLSCAASGSIFSINAMGWYRQAPGKQRELVAGFTGDTNTIYAESVKGRFTISRDNAKNTVYLQMSSLRAEDTAVYYCAADVQLFSRDYEFYWGQGTLVTVKPPGGGGDKTHTCPPCPAPGGPSVFLFPPKPKDTLMISRTPEVTCVVVDVSHEDPEVKFNWYVDGVEVHNAKTKPREEQYNSTYRVVSVLTVLHQDWLNGKEYKCKVSNKALPAPIEKTISKAKGQPREPQVYTLPPCRDELTKNQVSLWCLVKGFYPSDIAVEWESNGQPENNYKTTPPVLDSDGSFFLYSKLTVDKSRWQQGNVFSCSVMHEALHNHYTQKSLSLSPTGGGGGSGGGGGSGGGGGSEVQLVESGGGLVQPGGSLRLSCAASGFTFNTYAMNWVRQAPGKCLEWVARIRSKYNNYATYYADSVKGRFTISRDDAKNTLYLQMSSLRAEDTAVYYCVRHGNFGNSYVSWFAYWGQGTLVTVKPGGGGEVQLVESGGGEVQPGGSLRLSCGPSEIITSDKSMGWVRQAPGKQRNLVAGISNVGSTNYAQSVKGRFTISRDNAKNTVYLQMSSLRAEDTAVYYCYARDFENEYWGQGTLVTVKP chain 2: DKTHTCPPCPAPGGPSVFLFPPKPKDTLMISRTPEVTCVVVDVSHEDPEVKFNWYVDGVEVHNAKTKPREEQYNSTYRVVSVLTVLHQDWLNGKEYKCKVSNKALPAPIEKTISKAKGQPREPQVCTLPPSRDELTKNQVSLSCAVKGFYPSDIAVEWESNGQPENNYKTTPPVLDSDGSFFLVSKLTVDKSRWQQGNVFSCSVMHEALHNRYTQKSLSLSPTGGGGGSGGGGGSGGGGGSQAVVTQEPSLTVSPGGTVTLTCGSSTGAVTTSNYANWVQQKPGQAFRGLIGGTNKRAPGVPARFSGSLLGGKAALTISGAQPEDEADYYCALWYSNHWVFGCGTKLEIKGGGGEVQLLESGGGEVQPGGSLRLSCAASGFSFSINAMGWYRQAPGKRREFVAAIESGRNTVYAESVKGRFTISRDNAKNTVYLQMSSLRAEDTAVYYCGLLKGNRVVSPSVAYWGQGTLVTVKP | no binding | binds |  |
| cx5800 (other, Fc alternatives printed; first written; Short peptide linkers only 'e.g.'; also called monovalent DLL3-targeted constrained CD3 engaging construct (N-terminal sdAb)) chain 1: EVQLVESGGGEVQPGGSLRLSCAASGSIFSINAMGWYRQAPGKQRELVAGFTGDTNTIYAESVKGRFTISRDNAKNTVYLQMSSLRAEDTAVYYCAADVQLFSRDYEFYWGQGTLVTVKPPGGGGDKTHTCPPCPAPGGPSVFLFPPKPKDTLMISRTPEVTCVVVDVSHEDPEVKFNWYVDGVEVHNAKTKPREEQYNSTYRVVSVLTVLHQDWLNGKEYKCKVSNKALPAPIEKTISKAKGQPREPQVYTLPPCRDELTKNQVSLWCLVKGFYPSDIAVEWESNGQPENNYKTTPPVLDSDGSFFLYSKLTVDKSRWQQGNVFSCSVMHEALHNHYTQKSLSLSPTGGGGGSGGGGGSGGGGGSEVQLVESGGGLVQPGGSLRLSCAASGFTFNTYAMNWVRQAPGKCLEWVARIRSKYNNYATYYADSVKGRFTISRDDAKNTLYLQMSSLRAEDTAVYYCVRHGNFGNSYVSWFAYWGQGTLVTVKP chain 2: DKTHTCPPCPAPGGPSVFLFPPKPKDTLMISRTPEVTCVVVDVSHEDPEVKFNWYVDGVEVHNAKTKPREEQYNSTYRVVSVLTVLHQDWLNGKEYKCKVSNKALPAPIEKTISKAKGQPREPQVCTLPPSRDELTKNQVSLSCAVKGFYPSDIAVEWESNGQPENNYKTTPPVLDSDGSFFLVSKLTVDKSRWQQGNVFSCSVMHEALHNRYTQKSLSLSPTGGGGGSGGGGGSGGGGGSQAVVTQEPSLTVSPGGTVTLTCGSSTGAVTTSNYANWVQQKPGQAFRGLIGGTNKRAPGVPARFSGSLLGGKAALTISGAQPEDEADYYCALWYSNHWVFGCGTKLEIKGGGGEVQLLESGGGEVQPGGSLRLSCAASGFSFSINAMGWYRQAPGKRREFVAAIESGRNTVYAESVKGRFTISRDNAKNTVYLQMSSLRAEDTAVYYCGLLKGNRVVSPSVAYWGQGTLVTVKP | no binding | binds |  |
| cx5801 (other, Fc alternatives printed; first written; Short peptide linkers only 'e.g.'; also called monovalent DLL3-targeted constrained CD3 engaging construct (C-terminal sdAb)) chain 1: DKTHTCPPCPAPGGPSVFLFPPKPKDTLMISRTPEVTCVVVDVSHEDPEVKFNWYVDGVEVHNAKTKPREEQYNSTYRVVSVLTVLHQDWLNGKEYKCKVSNKALPAPIEKTISKAKGQPREPQVYTLPPCRDELTKNQVSLWCLVKGFYPSDIAVEWESNGQPENNYKTTPPVLDSDGSFFLYSKLTVDKSRWQQGNVFSCSVMHEALHNHYTQKSLSLSPTGGGGGSGGGGGSGGGGGSEVQLVESGGGLVQPGGSLRLSCAASGFTFNTYAMNWVRQAPGKCLEWVARIRSKYNNYATYYADSVKGRFTISRDDAKNTLYLQMSSLRAEDTAVYYCVRHGNFGNSYVSWFAYWGQGTLVTVKPGGGGEVQLVESGGGEVQPGGSLRLSCGPSEIITSDKSMGWVRQAPGKQRNLVAGISNVGSTNYAQSVKGRFTISRDNAKNTVYLQMSSLRAEDTAVYYCYARDFENEYWGQGTLVTVKP chain 2: DKTHTCPPCPAPGGPSVFLFPPKPKDTLMISRTPEVTCVVVDVSHEDPEVKFNWYVDGVEVHNAKTKPREEQYNSTYRVVSVLTVLHQDWLNGKEYKCKVSNKALPAPIEKTISKAKGQPREPQVCTLPPSRDELTKNQVSLSCAVKGFYPSDIAVEWESNGQPENNYKTTPPVLDSDGSFFLVSKLTVDKSRWQQGNVFSCSVMHEALHNRYTQKSLSLSPTGGGGGSGGGGGSGGGGGSQAVVTQEPSLTVSPGGTVTLTCGSSTGAVTTSNYANWVQQKPGQAFRGLIGGTNKRAPGVPARFSGSLLGGKAALTISGAQPEDEADYYCALWYSNHWVFGCGTKLEIKGGGGEVQLLESGGGEVQPGGSLRLSCAASGFSFSINAMGWYRQAPGKRREFVAAIESGRNTVYAESVKGRFTISRDNAKNTVYLQMSSLRAEDTAVYYCGLLKGNRVVSPSVAYWGQGTLVTVKP | no binding | binds |  |
| DART-Fc B7H3xCD3 (bispecific antibody, Comparator; also called DART-Fc format B7H3xCD3; B7-H3 x CD3 Bispecific DART-A Diabody) chain 1: DIQLTQSPSFLSASVGDRVTITCKASQNVDTNVAWYQQKPGKAPKALIYSASYRYSGVPSRFSGSGSGTDFTLTISSLQPEDFATYYCQQYNNYPFTFGQGTKLEIKGGGSGGGGEVQLVESGGGLVQPGGSLRLSCAASGFTFSTYAMNWVRQAPGKGLEWVGRIRSKYNNYATYYADSVKDRFTISRDDSKNSLYLQMNSLKTEDTAVYYCVRHGNFGNSYVSWFAYWGQGTLVTVSSGGCGGGEVAALEKEVAALEKEVAALEKEVAALEKGGGDKTHTCPPCPAPEAAGGPSVFLFPPKPKDTLMISRTPEVTCVVVDVSHEDPEVKFNWYVDGVEVHNAKTKPREEQYNSTYRVVSVLTVLHQDWLNGKEYKCKVSNKALPAPIEKTISKAKGQPREPQVYTLPPSREEMTKNQVSLWCLVKGFYPSDIAVEWESNGQPENNYKTTPPVLDSDGSFFLYSKLTVDKSRWQQGNVFSCSVMHEALHNHYTQKSLSLSPGK chain 2: QAVVTQEPSLTVSPGGTVTLTCRSSTGAVTTSNYANWVQQKPGQAPRGLIGGTNKRAPWTPARFSGSLLGGKAALTITGAQAEDEADYYCALWYSNLWVFGGGTKLTVLGGGGSGGGGEVQLVESGGGLVQPGGSLRLSCAASGFTFSSFGMHWVRQAPGKGLEWVAYISSDSSAIYYADTVKGRFTISRDNAKNSLYLQMNSLRDEDTAVYYCGRGRENIYYGSRLDYWGQGTTVTVSSGGCGGGKVAALKEKVAALKEKVAALKEKVAALKE chain 3: not shown |  |  | binds |

Source: US20200048350A1 (INHIBRX BIOSCIENCES, published 2020)
